Drawing on patent US20250026846A1 (JCR PHARMACEUTICALS, published 2025), this text covers Kd, koff and kon for four molecules.

Experiment [1] concerns the target T1, recombinant human TfR (r human TfR: Sino Biological Inc.), hTfR extracellular region with a histidine tag at … (human, UniProt P02786 89-760).
T1 construct: Bought from Sino Biological; also called r human TfR-ECD (Histag); recombinant hTfR; not shown: histidine tag at the N-terminus
Put plainly: BLI (Octet RED96), His-tagged TfR ECD on Ni-NTA sensor.

Experiment [2] concerns the target T2, recombinant monkey TfR (r monkey TfR: Sino Biological Inc.), crab-eating monkey TfR extracellular region with … (crab-eating monkey (Macaca fascicularis)).
T2 construct: Bought from Sino Biological; also called r monkey TfR-ECD (Histag); not shown: histidine tag at the N-terminus
T2 chain: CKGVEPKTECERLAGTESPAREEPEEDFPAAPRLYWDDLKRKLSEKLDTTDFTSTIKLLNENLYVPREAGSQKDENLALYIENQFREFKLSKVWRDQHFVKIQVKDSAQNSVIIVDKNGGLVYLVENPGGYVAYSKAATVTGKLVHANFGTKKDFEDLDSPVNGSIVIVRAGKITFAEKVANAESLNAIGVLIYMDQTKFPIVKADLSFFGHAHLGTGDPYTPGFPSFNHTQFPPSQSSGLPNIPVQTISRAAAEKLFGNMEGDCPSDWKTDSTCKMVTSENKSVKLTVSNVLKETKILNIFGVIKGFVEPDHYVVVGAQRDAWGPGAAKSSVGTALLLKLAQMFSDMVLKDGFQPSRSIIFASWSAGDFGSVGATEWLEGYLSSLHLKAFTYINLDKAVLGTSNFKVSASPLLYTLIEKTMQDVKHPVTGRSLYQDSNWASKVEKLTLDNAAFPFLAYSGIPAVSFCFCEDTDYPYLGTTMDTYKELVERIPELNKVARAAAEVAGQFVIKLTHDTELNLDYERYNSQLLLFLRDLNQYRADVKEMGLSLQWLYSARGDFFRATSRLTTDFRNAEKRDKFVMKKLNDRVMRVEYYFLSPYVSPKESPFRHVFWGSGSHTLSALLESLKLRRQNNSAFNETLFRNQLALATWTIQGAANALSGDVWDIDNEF
Described as above.

B1: Fab GS3-GBA (other)
light: DIVMTQTPLSLSVTPGQPASISCRSSQSLVHSNGNTYLHWYLQKPGQSPQLLIYKVSNRFSGVPDRFSGSGSGTDFTLKISRVEAEDVGVYYCSQSTHVPWTFGQGTKVEIKRTVAAPSVFIFPPSDEQLKSGTASVVCLLNNFYPREAKVQWKVDNALQSGNSQESVTEQDSKDSTYSLSSTLTLSKADYEKHKVYACEVTHQGLSSPVTKSFNRGEC
heavy: EVQLVQSGAEVKKPGESLKISCKGSGYSFMNYWLGWVRQMPGKGLEWMGDIYPGGDYPTYSEKFKVQVTISADKSISTAYLQLSSLKASDTAMYYCARSGNYDEVAYWGQGTLVTVSSASTKGPSVFPLAPSSKSTSGGTAALGCLVKDYFPEPVTVSWNSGALTSGVHTFPAVLQSSGLYSLSSVVTVPSSSLGTQTYICNVNHKPSNTKVDKKVEPKSCDKTHTGGGGSGGGGSGGGGSARPCIPKSFGYSSVVCVCNATYCDSFDPPTFPALGTFSRYESTRSGRRMELSMGPIQANHTGTGLLLTLQPEQKFQKVKGFGGAMTDAAALNILALSPPAQNLLLKSYFSEEGIGYNIIRVPMASCDFSIRTYTYADTPDDFQLHNFSLPEEDTKLKIPLIHRALQLAQRPVSLLASPWTSPTWLKTNGAVNGKGSLKGQPGDIYHQTWARYFVKFLDAYAEHKLQFWAVTAENEPSAGLLSGYPFQCLGFTPEHQRDFIARDLGPTLANSTHHNVRLLMLDDQRLLLPHWAKVVLTDPEAAKYVHGIAVHWYLDFLAPAKATLGETHRLFPNTMLFASEACVGSKFWEQSVRLGSWDRGMQYSHSIITNLLYHVVGWTDWNLALNPEGGPNWVRNFVDSPIIVDITKDTFYKQPMFYHLGHFSKFIPEGSQRVGLVASQKNDLDAVALMHPDGSAVVVVLNRSSKDVPLTIKDPAVGFLETISPGYSIHTYLWRRQ
notes: also called Fab HC-GS3-GBA
With B1, in experiment [1], the Kd is under 1 pM, the off-rate (koff) is under 1e-07 s⁻¹ and the on-rate (kon) came to 623000 M⁻¹ s⁻¹. In addition, the kon in experiment [2] came out at 299000 M⁻¹ s⁻¹.

B2: Fab GS3-GUSB (other)
light: DIVMTQTPLSLSVTPGQPASISCRSSQSLVHSNGNTYLHWYLQKPGQSPQLLIYKVSNRFSGVPDRFSGSGSGTDFTLKISRVEAEDVGVYYCSQSTHVPWTFGQGTKVEIKRTVAAPSVFIFPPSDEQLKSGTASVVCLLNNFYPREAKVQWKVDNALQSGNSQESVTEQDSKDSTYSLSSTLTLSKADYEKHKVYACEVTHQGLSSPVTKSFNRGEC
heavy: EVQLVQSGAEVKKPGESLKISCKGSGYSFMNYWLGWVRQMPGKGLEWMGDIYPGGDYPTYSEKFKVQVTISADKSISTAYLQLSSLKASDTAMYYCARSGNYDEVAYWGQGTLVTVSSASTKGPSVFPLAPSSKSTSGGTAALGCLVKDYFPEPVTVSWNSGALTSGVHTFPAVLQSSGLYSLSSVVTVPSSSLGTQTYICNVNHKPSNTKVDKKVEPKSCDKTHTGGGGSGGGGSGGGGSLQGGMLYPQESPSRECKELDGLWSFRADFSDNRRRGFEEQWYRRPLWESGPTVDMPVPSSFNDISQDWRLRHFVGWVWYEREVILPERWTQDLRTRVVLRIGSAHSYAIVWVNGVDTLEHEGGYLPFEADISNLVQVGPLPSRLRITIAINNTLTPTTLPPGTIQYLTDTSKYPKGYFVQNTYFDFFNYAGLQRSVLLYTTPTTYIDDITVTTSVEQDSGLVNYQISVKGSNLFKLEVRLLDAENKVVANGTGTQGQLKVPGVSLWWPYLMHERPAYLYSLEVQLTAQTSLGPVSDFYTLPVGIRTVAVTKSQFLINGKPFYFHGVNKHEDADIRGKGFDWPLLVKDFNLLRWLGANAFRTSHYPYAEEVMQMCDRYGIVVIDECPGVGLALPQFFNNVSLHHHMQVMEEVVRRDKNHPAVVMWSVANEPASHLESAGYYLKMVIAHTKSLDPSRPVTFVSNSNYAADKGAPYVDVICLNSYYSWYHDYGHLELIQLQLATQFENWYKKYQKPIIQSEYGAETIAGFHQDPPLMFTEEYQKSLLEQYHLGLDQKRRKYVVGELIWNFADFMTEQSPTRVLGNKKGIFTRQRQPKSAAFLLRERYWKIANETRYPHSVAKSQCLENSLFT
notes: also called Fab HC-GS3-GUSB
B2: in experiment [1], the Kd is under 1 pM, the koff is under 1e-07 s⁻¹ and the kon amounted to 449000 M⁻¹ s⁻¹. Besides, in experiment [2], the dissociation constant (Kd) is under 1 pM, the koff is under 1e-07 s⁻¹ and the kon stood at 250000 M⁻¹ s⁻¹.

B3: Fab GS3-NAGLU (other)
light: DIVMTQTPLSLSVTPGQPASISCRSSQSLVHSNGNTYLHWYLQKPGQSPQLLIYKVSNRFSGVPDRFSGSGSGTDFTLKISRVEAEDVGVYYCSQSTHVPWTFGQGTKVEIKRTVAAPSVFIFPPSDEQLKSGTASVVCLLNNFYPREAKVQWKVDNALQSGNSQESVTEQDSKDSTYSLSSTLTLSKADYEKHKVYACEVTHQGLSSPVTKSFNRGEC
heavy: EVQLVQSGAEVKKPGESLKISCKGSGYSFMNYWLGWVRQMPGKGLEWMGDIYPGGDYPTYSEKFKVQVTISADKSISTAYLQLSSLKASDTAMYYCARSGNYDEVAYWGQGTLVTVSSASTKGPSVFPLAPSSKSTSGGTAALGCLVKDYFPEPVTVSWNSGALTSGVHTFPAVLQSSGLYSLSSVVTVPSSSLGTQTYICNVNHKPSNTKVDKKVEPKSCDKTHTGGGGSGGGGSGGGGSDEAREAAAVRALVARLLGPGPAADFSVSVERALAAKPGLDTYSLGGGGAARVRVRGSTGVAAAAGLHRYLRDFCGCHVAWSGSQLRLPRPLPAVPGELTEATPNRYRYYQNVCTQSYSFVWWDWARWEREIDWMALNGINLALAWSGQEAIWQRVYLALGLTQAEINEFFTGPAFLAWGRMGNLHTWDGPLPPSWHIKQLYLQHRVLDQMRSFGMTPVLPAFAGHVPEAVTRVFPQVNVTKMGSWGHFNCSYSCSFLLAPEDPIFPIIGSLFLRELIKEFGTDHIYGADTFNEMQPPSSEPSYLAAATTAVYEAMTAVDTEAVWLLQGWLFQHQPQFWGPAQIRAVLGAVPRGRLLVLDLFAESQPVYTRTASFQGQPFIWCMLHNFGGNHGLFGALEAVNGGPEAARLFPNSTMVGTGMAPEGISQNEVVYSLMAELGWRKDPVPDLAAWVTSFAARRYGVSHPDAGAAWRLLLRSVYNCSGEACRGHNRSPLVRRPSLQMNTSIWYNRSDVFEAWRLLLTSAPSLATSPAFRYDLLDLTRQAVQELVSLYYEEARSAYLSKELASLLRAGGVLAYELLPALDEVLASDSRFLLGSWLEQARAAAVSEAEADFYEQNSRYQLTLWGPEGNILDYANKQLAGLVANYYTPRWRLFLEALVDSVAQGIPFQQHQFDKNVFQLEQAFVLSKQRYPSQPRGDTVDLAKKIFLKYYPRWVAGSW
notes: also called Fab HC-GS3-NAGLU
For the molecule B3, in experiment [1], the dissociation constant (Kd) is under 1 pM, the koff was under 1e-07 s⁻¹ and the kon came to 291000 M⁻¹ s⁻¹. In experiment [2], the Kd was found to be 2620 pM, the off-rate (koff) stood at 0.000402 s⁻¹ and the on-rate (kon) came to 154000 M⁻¹ s⁻¹.

B4: Fab GS3-GALC (other)
light: DIVMTQTPLSLSVTPGQPASISCRSSQSLVHSNGNTYLHWYLQKPGQSPQLLIYKVSNRFSGVPDRFSGSGSGTDFTLKISRVEAEDVGVYYCSQSTHVPWTFGQGTKVEIKRTVAAPSVFIFPPSDEQLKSGTASVVCLLNNFYPREAKVQWKVDNALQSGNSQESVTEQDSKDSTYSLSSTLTLSKADYEKHKVYACEVTHQGLSSPVTKSFNRGEC
heavy: EVQLVQSGAEVKKPGESLKISCKGSGYSFMNYWLGWVRQMPGKGLEWMGDIYPGGDYPTYSEKFKVQVTISADKSISTAYLQLSSLKASDTAMYYCARSGNYDEVAYWGQGTLVTVSSASTKGPSVFPLAPSSKSTSGGTAALGCLVKDYFPEPVTVSWNSGALTSGVHTFPAVLQSSGLYSLSSVVTVPSSSLGTQTYICNVNHKPSNTKVDKKVEPKSCDKTHTGGGGSGGGGSGGGGSYVLDDSDGLGREFDGIGAVSGGGATSRLLVNYPEPYRSQILDYLFKPNFGASLHILKVEIGGDGQTTDGTEPSHMHYALDENYFRGYEWWLMKEAKKRNPNITLIGLPWSFPGWLGKGFDWPYVNLQLTAYYVVTWIVGAKRYHDLDIDYIGIWNERSYNANYIKILRKMLNYQGLQRVKIIASDNLWESISASMLLDAELFKVVDVIGAHYPGTHSAKDAKLTGKKLWSSEDFSTLNSDMGAGCWGRILNQNYINGYMTSTIAWNLVASYYEQLPYGRCGLMTAQEPWSGHYVVESPVWVSAHTTQFTQPGWYYLKTVGHLEKGGSYVALTDGLGNLTIIIETMSHKHSKCIRPFLPYFNVSQQFATFVLKGSFSEIPELQVWYTKLGKTSERFLFKQLDSLWLLDSDGSFTLSLHEDELFTLTTLTTGRKGSYPLPPKSQPFPSTYKDDFNVDYPFFSEAPNFADQTGVFEYFTNIEDPGEHHFTLRQVLNQRPITWAADASNTISIIGDYNWTNLTIKCDVYIETPDTGGVFIAGRVNKGGILIRSARGIFFWIFANGSYRVTGDLAGWIIYALGRVEVTAKKWYTLTLTIKGHFTSGMLNDKSLWTDIPVNFPKNGWAAIGTHSFEFAQFDNFLVEATR
notes: also called Fab HC-GS3-GALC
For B4, in experiment [1], the dissociation constant (Kd) was under 1 pM, the koff was under 1e-07 s⁻¹ and the kon turned out to be 224000 M⁻¹ s⁻¹. For the same molecule, in experiment [2], the Kd amounted to 1400 pM, the koff was determined as 0.000154 s⁻¹ and the kon is 111000 M⁻¹ s⁻¹.
